Laboratory results reported in patent publication US20170233442.

Molecular target: T1, P3L (nucleolin RRM2-derived peptide) (UniProt P19338)
T1 sequence: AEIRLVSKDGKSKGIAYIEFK
Assay: ITC
Settings: 20 mM MOPS pH 7.0, 300 mM NaCl, 25 C

| Substance | Kd (unit inferred, uM from context) | other results |
| --- | --- | --- |
| SCA2CAG22 RNA (unexpanded) | – | Kd (unexpanded repeat): 17.3 µM |
| SCA2CAG72 RNA | – | Kd (one-site model, CD also showed structural change on RNA addition (FIG. 2)): 0.66 µM |
| SCA2CAG42 RNA | 5.6 µM | – |
| SCA2CAG55 RNA | 4.83 µM | – |
